# B1: Sorting nexin-20 (Homo sapiens), Q7Z614 (parent)
# chain: MASPEHPGSPGCMGPITQCTARTQQEAPATGPDLPHPGPDGHLDTHSGLSSNSSMTTRELQQYWQNQKCRWKHVKLLFEIASARIEERKVSKFVVYQIIVIQTGSFDNNKAVLERRYSDFAKLQKALLKTFREEIEDVEFPRKHLTGNFAEEMICERRRALQEYLGLLYAIRCVRRSREFLDFLTRPELREAFGCLRAGQYPRALELLLRVLPLQEKLTAHCPAAAVPALCAVLLCHRDLDRPAEAFAAGERALQRLQAREGHRYYAPLLDAMVRLAYALGKDFVTLQERLEESQLRRPTPRGITLKELTVREYLH
# partner: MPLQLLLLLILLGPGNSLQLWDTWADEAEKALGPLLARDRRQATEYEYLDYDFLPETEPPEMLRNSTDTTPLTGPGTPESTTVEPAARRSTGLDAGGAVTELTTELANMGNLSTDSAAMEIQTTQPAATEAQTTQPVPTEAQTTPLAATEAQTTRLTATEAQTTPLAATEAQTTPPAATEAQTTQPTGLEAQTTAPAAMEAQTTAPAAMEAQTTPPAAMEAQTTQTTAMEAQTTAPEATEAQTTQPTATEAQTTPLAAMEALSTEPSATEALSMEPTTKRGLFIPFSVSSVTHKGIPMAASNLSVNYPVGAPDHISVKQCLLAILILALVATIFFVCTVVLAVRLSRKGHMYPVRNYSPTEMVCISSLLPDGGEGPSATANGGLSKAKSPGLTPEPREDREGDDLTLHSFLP
# Variants of: B1
# Settings: with selpl_human SELPLG
row,effect of a mutation on the interaction,Variant
1,disrupting interaction,R116Q

# Source: IntAct's records for PubMed 18196517
